Assay results as given in the Human Domainome abundance scans (Beltran et al. 2025).
± gives the uncertainty stated by the source.

B1: POU domain, class 4, transcription factor 3, residues 185 to 256; numbered along this chain, Q15319 (parent)
chain: RELEAFAERFKQRRIKLGVTQADVGAALANLKIPGVGSLSQSTICRFESLTLSHNNMIALKPVLQAWLEEAE

Variants of: B1
Assay: abundance fitness (aPCA) (normalised: wild type 0, dead -1); higher = more abundant; growth selection in yeast, the domain comes from the species named
Conditions: Homo sapiens

Variant | abundance fitness
RELEAFPERFKQRRIKLGVTQADVGAALANLKIPGVGSLSQSTICRFESLTLSHNNMIALKPVLQAWLEEAE [A7P] | -0.579 ± 0.042
RELEAFVERFKQRRIKLGVTQADVGAALANLKIPGVGSLSQSTICRFESLTLSHNNMIALKPVLQAWLEEAE [A7V] | 0.039 ± 0.029
RELEAFEERFKQRRIKLGVTQADVGAALANLKIPGVGSLSQSTICRFESLTLSHNNMIALKPVLQAWLEEAE [A7E] | -0.893 ± 0.082
RELEAFKERFKQRRIKLGVTQADVGAALANLKIPGVGSLSQSTICRFESLTLSHNNMIALKPVLQAWLEEAE [A7K] | -0.398 ± 0.2
RELEAFWERFKQRRIKLGVTQADVGAALANLKIPGVGSLSQSTICRFESLTLSHNNMIALKPVLQAWLEEAE [A7W] | -0.817 ± 0.049
RELEAFDERFKQRRIKLGVTQADVGAALANLKIPGVGSLSQSTICRFESLTLSHNNMIALKPVLQAWLEEAE [A7D] | -0.953 ± 0.22
RELEAFQERFKQRRIKLGVTQADVGAALANLKIPGVGSLSQSTICRFESLTLSHNNMIALKPVLQAWLEEAE [A7Q] | -0.689 ± 0.061
RELEAFHERFKQRRIKLGVTQADVGAALANLKIPGVGSLSQSTICRFESLTLSHNNMIALKPVLQAWLEEAE [A7H] | -0.707 ± 0.099
RELEAFRERFKQRRIKLGVTQADVGAALANLKIPGVGSLSQSTICRFESLTLSHNNMIALKPVLQAWLEEAE [A7R] | -0.695 ± 0.032
RELEAFIERFKQRRIKLGVTQADVGAALANLKIPGVGSLSQSTICRFESLTLSHNNMIALKPVLQAWLEEAE [A7I] | -0.083 ± 0.2
RELEAFGERFKQRRIKLGVTQADVGAALANLKIPGVGSLSQSTICRFESLTLSHNNMIALKPVLQAWLEEAE [A7G] | -0.646 ± 0.031
RELEAFLERFKQRRIKLGVTQADVGAALANLKIPGVGSLSQSTICRFESLTLSHNNMIALKPVLQAWLEEAE [A7L] | -0.581 ± 0.034
RELEAFFERFKQRRIKLGVTQADVGAALANLKIPGVGSLSQSTICRFESLTLSHNNMIALKPVLQAWLEEAE [A7F] | -0.649 ± 0.1
RELEAFCERFKQRRIKLGVTQADVGAALANLKIPGVGSLSQSTICRFESLTLSHNNMIALKPVLQAWLEEAE [A7C] | -0.124 ± 0.055
RELEAFYERFKQRRIKLGVTQADVGAALANLKIPGVGSLSQSTICRFESLTLSHNNMIALKPVLQAWLEEAE [A7Y] | -0.725 ± 0.18
RELEAFMERFKQRRIKLGVTQADVGAALANLKIPGVGSLSQSTICRFESLTLSHNNMIALKPVLQAWLEEAE [A7M] | -0.784 ± 0.13
RELEAFTERFKQRRIKLGVTQADVGAALANLKIPGVGSLSQSTICRFESLTLSHNNMIALKPVLQAWLEEAE [A7T] | -0.235 ± 0.063
RELEAFNERFKQRRIKLGVTQADVGAALANLKIPGVGSLSQSTICRFESLTLSHNNMIALKPVLQAWLEEAE [A7N] | -0.927 ± 0.27
RELEGFAERFKQRRIKLGVTQADVGAALANLKIPGVGSLSQSTICRFESLTLSHNNMIALKPVLQAWLEEAE [A5G] | -0.033 ± 0.085
RELEEFAERFKQRRIKLGVTQADVGAALANLKIPGVGSLSQSTICRFESLTLSHNNMIALKPVLQAWLEEAE [A5E] | -0.155 ± 0.26
RELELFAERFKQRRIKLGVTQADVGAALANLKIPGVGSLSQSTICRFESLTLSHNNMIALKPVLQAWLEEAE [A5L] | 0.019 ± 0.065
RELESFAERFKQRRIKLGVTQADVGAALANLKIPGVGSLSQSTICRFESLTLSHNNMIALKPVLQAWLEEAE [A5S] | -0.002 ± 0.19
RELEWFAERFKQRRIKLGVTQADVGAALANLKIPGVGSLSQSTICRFESLTLSHNNMIALKPVLQAWLEEAE [A5W] | -0.379 ± 0.14
RELEMFAERFKQRRIKLGVTQADVGAALANLKIPGVGSLSQSTICRFESLTLSHNNMIALKPVLQAWLEEAE [A5M] | 0.109 ± 0.099
RELETFAERFKQRRIKLGVTQADVGAALANLKIPGVGSLSQSTICRFESLTLSHNNMIALKPVLQAWLEEAE [A5T] | -0.002 ± 0.23

Variant | abundance fitness
RELEVFAERFKQRRIKLGVTQADVGAALANLKIPGVGSLSQSTICRFESLTLSHNNMIALKPVLQAWLEEAE [A5V] | -0.051 ± 0.096
RELECFAERFKQRRIKLGVTQADVGAALANLKIPGVGSLSQSTICRFESLTLSHNNMIALKPVLQAWLEEAE [A5C] | -0.552 ± 0.3
RELEQFAERFKQRRIKLGVTQADVGAALANLKIPGVGSLSQSTICRFESLTLSHNNMIALKPVLQAWLEEAE [A5Q] | 0.08 ± 0.15
RELEFFAERFKQRRIKLGVTQADVGAALANLKIPGVGSLSQSTICRFESLTLSHNNMIALKPVLQAWLEEAE [A5F] | -0.605 ± 0.21
RELERFAERFKQRRIKLGVTQADVGAALANLKIPGVGSLSQSTICRFESLTLSHNNMIALKPVLQAWLEEAE [A5R] | -0.121 ± 0.19
RELGAFAERFKQRRIKLGVTQADVGAALANLKIPGVGSLSQSTICRFESLTLSHNNMIALKPVLQAWLEEAE [E4G] | -0.197 ± 0.033
RELCAFAERFKQRRIKLGVTQADVGAALANLKIPGVGSLSQSTICRFESLTLSHNNMIALKPVLQAWLEEAE [E4C] | -0.17 ± 0.061
RELKAFAERFKQRRIKLGVTQADVGAALANLKIPGVGSLSQSTICRFESLTLSHNNMIALKPVLQAWLEEAE [E4K] | -0.125 ± 0.11
RELLAFAERFKQRRIKLGVTQADVGAALANLKIPGVGSLSQSTICRFESLTLSHNNMIALKPVLQAWLEEAE [E4L] | -0.214 ± 0.064
RELWAFAERFKQRRIKLGVTQADVGAALANLKIPGVGSLSQSTICRFESLTLSHNNMIALKPVLQAWLEEAE [E4W] | -0.222 ± 0.043
RELNAFAERFKQRRIKLGVTQADVGAALANLKIPGVGSLSQSTICRFESLTLSHNNMIALKPVLQAWLEEAE [E4N] | -0.11 ± 0.096
RELMAFAERFKQRRIKLGVTQADVGAALANLKIPGVGSLSQSTICRFESLTLSHNNMIALKPVLQAWLEEAE [E4M] | 0.01 ± 0.11
RELFAFAERFKQRRIKLGVTQADVGAALANLKIPGVGSLSQSTICRFESLTLSHNNMIALKPVLQAWLEEAE [E4F] | 0.03 ± 0.055
RELYAFAERFKQRRIKLGVTQADVGAALANLKIPGVGSLSQSTICRFESLTLSHNNMIALKPVLQAWLEEAE [E4Y] | -0.125 ± 0.07
RELIAFAERFKQRRIKLGVTQADVGAALANLKIPGVGSLSQSTICRFESLTLSHNNMIALKPVLQAWLEEAE [E4I] | 0.113 ± 0.077
RELRAFAERFKQRRIKLGVTQADVGAALANLKIPGVGSLSQSTICRFESLTLSHNNMIALKPVLQAWLEEAE [E4R] | 0.041 ± 0.11
RELEAFAGRFKQRRIKLGVTQADVGAALANLKIPGVGSLSQSTICRFESLTLSHNNMIALKPVLQAWLEEAE [E8G] | -0.098 ± 0.051
RELEAFACRFKQRRIKLGVTQADVGAALANLKIPGVGSLSQSTICRFESLTLSHNNMIALKPVLQAWLEEAE [E8C] | -0.212 ± 0.071
RELEAFAMRFKQRRIKLGVTQADVGAALANLKIPGVGSLSQSTICRFESLTLSHNNMIALKPVLQAWLEEAE [E8M] | -0.003 ± 0.059
RELEAFAFRFKQRRIKLGVTQADVGAALANLKIPGVGSLSQSTICRFESLTLSHNNMIALKPVLQAWLEEAE [E8F] | -0.005 ± 0.12
RELEAFANRFKQRRIKLGVTQADVGAALANLKIPGVGSLSQSTICRFESLTLSHNNMIALKPVLQAWLEEAE [E8N] | -0.434 ± 0.35
RELEAFAIRFKQRRIKLGVTQADVGAALANLKIPGVGSLSQSTICRFESLTLSHNNMIALKPVLQAWLEEAE [E8I] | 0 ± 0.12
RELEAFADRFKQRRIKLGVTQADVGAALANLKIPGVGSLSQSTICRFESLTLSHNNMIALKPVLQAWLEEAE [E8D] | -0.05 ± 0.14
RELEAFAARFKQRRIKLGVTQADVGAALANLKIPGVGSLSQSTICRFESLTLSHNNMIALKPVLQAWLEEAE [E8A] | 0.022 ± 0.081
RILEAFAERFKQRRIKLGVTQADVGAALANLKIPGVGSLSQSTICRFESLTLSHNNMIALKPVLQAWLEEAE [E2I] | -0.664 ± 0.37

Variant | abundance fitness
RLLEAFAERFKQRRIKLGVTQADVGAALANLKIPGVGSLSQSTICRFESLTLSHNNMIALKPVLQAWLEEAE [E2L] | -0.421 ± 0.04
RKLEAFAERFKQRRIKLGVTQADVGAALANLKIPGVGSLSQSTICRFESLTLSHNNMIALKPVLQAWLEEAE [E2K] | -0.121 ± 0.26
RHLEAFAERFKQRRIKLGVTQADVGAALANLKIPGVGSLSQSTICRFESLTLSHNNMIALKPVLQAWLEEAE [E2H] | -0.221 ± 0.17
RPLEAFAERFKQRRIKLGVTQADVGAALANLKIPGVGSLSQSTICRFESLTLSHNNMIALKPVLQAWLEEAE [E2P] | -0.345 ± 0.13
RNLEAFAERFKQRRIKLGVTQADVGAALANLKIPGVGSLSQSTICRFESLTLSHNNMIALKPVLQAWLEEAE [E2N] | -0.207 ± 0.14
RMLEAFAERFKQRRIKLGVTQADVGAALANLKIPGVGSLSQSTICRFESLTLSHNNMIALKPVLQAWLEEAE [E2M] | -0.437 ± 0.13
RYLEAFAERFKQRRIKLGVTQADVGAALANLKIPGVGSLSQSTICRFESLTLSHNNMIALKPVLQAWLEEAE [E2Y] | -0.686 ± 0.21
RELEAVAERFKQRRIKLGVTQADVGAALANLKIPGVGSLSQSTICRFESLTLSHNNMIALKPVLQAWLEEAE [F6V] | -0.701 ± 0.17
RELEAYAERFKQRRIKLGVTQADVGAALANLKIPGVGSLSQSTICRFESLTLSHNNMIALKPVLQAWLEEAE [F6Y] | -0.118 ± 0.26
RELEADAERFKQRRIKLGVTQADVGAALANLKIPGVGSLSQSTICRFESLTLSHNNMIALKPVLQAWLEEAE [F6D] | -0.293 ± 0.28
RELEALAERFKQRRIKLGVTQADVGAALANLKIPGVGSLSQSTICRFESLTLSHNNMIALKPVLQAWLEEAE [F6L] | -0.221 ± 0.25
RELEAMAERFKQRRIKLGVTQADVGAALANLKIPGVGSLSQSTICRFESLTLSHNNMIALKPVLQAWLEEAE [F6M] | -0.327 ± 0.25
RELEASAERFKQRRIKLGVTQADVGAALANLKIPGVGSLSQSTICRFESLTLSHNNMIALKPVLQAWLEEAE [F6S] | -0.338 ± 0.3
RELEAKAERFKQRRIKLGVTQADVGAALANLKIPGVGSLSQSTICRFESLTLSHNNMIALKPVLQAWLEEAE [F6K] | -1.03 ± 0.42
RELEACAERFKQRRIKLGVTQADVGAALANLKIPGVGSLSQSTICRFESLTLSHNNMIALKPVLQAWLEEAE [F6C] | -0.731 ± 0.25
RESEAFAERFKQRRIKLGVTQADVGAALANLKIPGVGSLSQSTICRFESLTLSHNNMIALKPVLQAWLEEAE [L3S] | -0.359 ± 0.36
REKEAFAERFKQRRIKLGVTQADVGAALANLKIPGVGSLSQSTICRFESLTLSHNNMIALKPVLQAWLEEAE [L3K] | -0.482 ± 0.083
REIEAFAERFKQRRIKLGVTQADVGAALANLKIPGVGSLSQSTICRFESLTLSHNNMIALKPVLQAWLEEAE [L3I] | 0.065 ± 0.07
REQEAFAERFKQRRIKLGVTQADVGAALANLKIPGVGSLSQSTICRFESLTLSHNNMIALKPVLQAWLEEAE [L3Q] | -0.227 ± 0.13
REVEAFAERFKQRRIKLGVTQADVGAALANLKIPGVGSLSQSTICRFESLTLSHNNMIALKPVLQAWLEEAE [L3V] | 0.074 ± 0.13
REYEAFAERFKQRRIKLGVTQADVGAALANLKIPGVGSLSQSTICRFESLTLSHNNMIALKPVLQAWLEEAE [L3Y] | -0.192 ± 0.1
RENEAFAERFKQRRIKLGVTQADVGAALANLKIPGVGSLSQSTICRFESLTLSHNNMIALKPVLQAWLEEAE [L3N] | -0.605 ± 0.12
REEEAFAERFKQRRIKLGVTQADVGAALANLKIPGVGSLSQSTICRFESLTLSHNNMIALKPVLQAWLEEAE [L3E] | -0.395 ± 0.33
RETEAFAERFKQRRIKLGVTQADVGAALANLKIPGVGSLSQSTICRFESLTLSHNNMIALKPVLQAWLEEAE [L3T] | -0.109 ± 0.18
REMEAFAERFKQRRIKLGVTQADVGAALANLKIPGVGSLSQSTICRFESLTLSHNNMIALKPVLQAWLEEAE [L3M] | -0.261 ± 0.093
